Test results reported in the Immune Epitope Database (IEDB).

Columns and labels:
HLA-B*51:01 = experiment: IEDB peptide-MHC binding, purified MHC/direct/fluorescence; filed as Kd, often an IC50 or EC50 that approximates it; ≥ and ≤ were set here for values at or beyond the usual limits of such assays; conditions: source organism: Mammarenavirus lassaense
HLA-B*07:02 = experiment: as above
HLA-B*27:05 = experiment: as above
HLA-A*26:01 = experiment: as above; conditions: source organism: Vibrio cholerae
HLA-B*44:02 = experiment: as above; conditions: source organism: Vibrio cholerae
HLA-B*40:01 = experiment: as above
HLA-A*03:01 [1] = experiment: as above
HLA-A*01:01 = experiment: as above
HLA-B*58:01 = experiment: as above
HLA-A*24:03 = experiment: as above; conditions: source organism: Vibrio cholerae
HLA-B*15:01 = experiment: as above
HLA-A*69:01 = experiment: as above; conditions: source organism: Vibrio cholerae
HLA-A*31:01 [2] = experiment: as above
HLA-A*11:01 [3] = experiment: as above
HLA-A*02:01 = experiment: as above
HLA-B*08:01 = experiment: as above; conditions: source organism: Vibrio cholerae
HLA-B*48:01 = experiment: as above; conditions: source organism: Giardia lamblia ATCC 50803
HLA-B*57:01 = experiment: as above
HLA-B*15:17 = experiment: as above
HLA-B*46:01 = experiment: as above; conditions: source organism: Giardia lamblia ATCC 50803
HLA-A*33:01 = experiment: IEDB peptide-MHC binding, purified MHC/competitive/radioactivity; filed as Kd, often an IC50 or EC50 that approximates it; ≥ and ≤ were set here for values at or beyond the usual limits of such assays; conditions: source organism: Vaccinia virus WR
HLA-A*03:01 [4] = experiment: as above; conditions: source organism: Vaccinia virus WR
HLA-A*68:01 = experiment: as above; conditions: source organism: Vaccinia virus WR
HLA-A*31:01 [5] = experiment: as above; conditions: source organism: Vaccinia virus WR
HLA-A*11:01 [6] = experiment: as above; conditions: source organism: Vaccinia virus WR
[7] = source organism: Vibrio cholerae
[8] = source organism: Giardia lamblia ATCC 50803
[9] = source organism: Camelpox virus M-96

**Q.** Which results are given for CGRSCTSSL?
**A.** Kd (HLA-B*51:01): ≥ 20 µM; Kd (HLA-B*07:02; source organism: Mammarenavirus lassaense): 0.558 µM

**Q.** For DSDPMDGCE, which Kd (HLA-B*27:05; [7]) is on record?
**A.** ≥ 20 µM

**Q.** And the Kd (HLA-A*26:01)?
**A.** ≥ 20 µM

**Q.** And the Kd (HLA-B*44:02)?
**A.** ≥ 20 µM

**Q.** What about the Kd (HLA-B*40:01; [7]) of the same sequence?
**A.** ≥ 20 µM

**Q.** What about the Kd (HLA-A*03:01 [1]; [7]) of the same sequence?
**A.** ≥ 20 µM

**Q.** What about the Kd (HLA-A*01:01; [7]) of the same sequence?
**A.** ≥ 20 µM

**Q.** And the Kd (HLA-B*58:01; [7])?
**A.** ≥ 20 µM

**Q.** And the Kd (HLA-A*24:03)?
**A.** ≥ 20 µM

**Q.** And the Kd (HLA-B*15:01; [7])?
**A.** ≥ 20 µM

**Q.** What about the Kd (HLA-A*69:01) of the same sequence?
**A.** ≥ 20 µM

**Q.** What about the Kd (HLA-A*31:01 [2]; [7]) of the same sequence?
**A.** ≥ 20 µM

**Q.** What about the Kd (HLA-A*11:01 [3]; [7]) of the same sequence?
**A.** ≥ 20 µM

**Q.** And the Kd (HLA-A*02:01; [7])?
**A.** ≥ 20 µM

**Q.** And the Kd (HLA-B*07:02; [7])?
**A.** ≥ 20 µM

**Q.** And the Kd (HLA-B*08:01)?
**A.** ≥ 20 µM

**Q.** Which Kd (HLA-B*27:05; [8]) does the source give for DSPATLSAY here?
**A.** ≥ 20 µM

**Q.** What about the Kd (HLA-B*48:01) of the same sequence?
**A.** ≥ 20 µM

**Q.** And the Kd (HLA-B*57:01; [8])?
**A.** ≥ 20 µM

**Q.** What about the Kd (HLA-B*15:17; [8]) of the same sequence?
**A.** 5.53 µM

**Q.** And the Kd (HLA-B*40:01; [8])?
**A.** ≥ 20 µM

**Q.** And the Kd (HLA-A*03:01 [1]; [8])?
**A.** ≥ 20 µM

**Q.** And the Kd (HLA-A*01:01; [8])?
**A.** ≥ 20 µM

**Q.** And the Kd (HLA-B*58:01; [8])?
**A.** ≥ 20 µM

**Q.** And the Kd (HLA-B*15:01; [8])?
**A.** ≥ 20 µM

**Q.** What about the Kd (HLA-B*46:01) of the same sequence?
**A.** ≥ 20 µM

**Q.** And the Kd (HLA-A*31:01 [2]; [8])?
**A.** ≥ 20 µM

**Q.** And the Kd (HLA-A*11:01 [3]; [8])?
**A.** ≥ 20 µM

**Q.** And the Kd (HLA-A*02:01; [8])?
**A.** ≥ 20 µM

**Q.** For KSISSIFGY, which Kd (HLA-B*57:01; [9]) is on record?
**A.** 0.037 µM

**Q.** What about the Kd (HLA-B*15:17; [9]) of the same sequence?
**A.** ≤ 0.001 µM

**Q.** And the Kd (HLA-B*58:01; [9])?
**A.** 0.0015 µM

**Q.** What about the Kd (HLA-A*33:01) of the same sequence?
**A.** ≥ 25.2 µM

**Q.** What about the Kd (HLA-A*03:01 [4]) of the same sequence?
**A.** 0.0474 µM

**Q.** And the Kd (HLA-A*68:01)?
**A.** 6.74 µM

**Q.** What about the Kd (HLA-A*31:01 [5]) of the same sequence?
**A.** 0.0866 µM

**Q.** What about the Kd (HLA-A*11:01 [6]) of the same sequence?
**A.** 0.00327 µM

**Q.** What does the source list for KSTSPTRTW?
**A.** Kd (HLA-B*57:01; [9]): 0.0707 µM; Kd (HLA-B*15:17; [9]): 0.0024 µM; Kd (HLA-B*58:01; [9]): 0.035 µM
